Consider one molecule from US20260209294A1, “USE OF RECOMBINANT PROTEIN IN PREPARING DRUG FOR INHIBITING ANEURYSM” (HUAZHONG UNIVERSITY OF SCIENCE AND TECHNOLOGY, priority 2022, published 2026).

The test system of test [1] is TGFβ1 signaling pathway in VSMC cells (aortic smooth muscle cells). As to the kind of experiment: VSMC cells treated with AGGF1 protein: Western blot, ELISA, RT-PCR of TGFβ1 signaling. In kind it is cell-based. On the procedure: FIG. 8 depicts that AGGF1 inhibits TGF-β1 and ERK1/2 signaling pathways and a TGF-β1-induced VSMC inflammation. […] Subsequently, cell lysates are collected for the western blot analysis of p-ERK1/2, T-ERK1/2, and p-Smad3. The GAPDH serves as a loading control. […] After 48 hours, the cell lysates are collected for the western blot analysis of p-ERK1/2, T-ERK1/2, and p-Smad3. […] The GAPDH serves as a loading control. […] Subsequently, mRNA is extracted using a Trizol method and reverse transcribed to obtain cDNA for a real-time RT-PCR detection of Il-6, Mcp1, Mmp2, and Mmp9 mRNA levels. […] Subsequently, mRNA is extracted using the Trizol method and reverse transcribed to obtain cDNA. The real-time RT-PCR is performed to analyze the mRNA levels of Il-6, Mcp1, Mmp2, and Mmp9. *, P<0.05; **, P<0.01; ***, P<0.001; n=3/group.
(§1) The β-actin serves as a loading control. […] The GAPDH serves as a loading control. […] The mRNA is extracted using the Trizol method and reverse transcribed to obtain cDNA. […] Cells are transfected with different plasmids of LAP-TGF-β1-FLAG and the integrin α7-FLAG, and treated with the purified AGGF1 or AGGF1-RDDdel for 24 hours, with grouping as shown in FIG. K. *, P<0.05; **, P<0.01; ***, P<0.001; n≥3/group.
(§2) In vitro experiments were performed using aortic smooth muscle cells and HEK293T cells. As shown in A-C of FIG. 8 and A-F of FIG. 9, whether with recombinant AGGF1 protein, AGGF1-FLAG overexpression, or AGGF1 silencing, Western blot analysis and ELISA experimental results verified that AGGF1 inhibits the TGFβ1 signaling pathway (Smad3 and ERK1/2) and the level of the mature TGFβ1. […] In the Western blot analysis of FIG. 10, it was verified that LAP-TGFβ1 interacts with integrin α7 through the RGD sequence, which is also the molecular mechanism by which integrin α7 inhibits TGFβ1.
(In general: In western blotting, separated proteins are transferred to a membrane and probed.)

Test [2] has as its target T1, integrin α7 / LAP-TGF-β1 interaction (Homo sapiens, UniProt Q13683).
T1 construct: FLAG; GFP; expressed in transfected cells; host or cells: HEK293T
As to the kind of experiment: Co-IP of LAP-TGF-β1-GFP and integrin α7-FLAG in HEK293T cells. In kind it is cell-based. The settings on record: AGGF1 overexpression or stimulation for 24 hours. The text has this:
FIG. 10 illustrates that the integrin α7 interacts with LAP-TGF-β1 via an RGD sequence, and AGGF1 enhances this interaction. […] Quantitative data of a LAP-TGF-β1-GFP/α7-FLAG ratio are plotted as bar graphs on the right. […] Quantitative data of the LAP-TGF-β1-GFP/α7-FLAG ratio are plotted as bar graphs on the right. *, P<0.05; **, P<0.01; ***, P<0.001; n=3/group.

The subject of test [3] is mature TGFβ1 in HEK293T cells. As to the kind of experiment: ELISA of TGF-β1 levels in culture medium of HEK293T cells transfected with LAP-TGF-β1-FLAG and integrin α7-FLAG. The class given is cell-based. The conditions noted are these: purified protein 24 hours. On the procedure: as §1, §2
Background: An ELISA detects its analyte on a solid surface through an enzyme-linked reagent.

Test [4] has as its system TAC-induced mouse aneurysm model. As to the kind of experiment: TAC (transverse aortic constriction)-induced aneurysm model, i.p. recombinant AGGF1 or AGGF1-RDDdel protein. In kind it is in vivo, C57BL/6 mice. The text has this:
RCAs are harvested after 21 days for the histological staining. […] The bar graphs at the bottom show the intima thickness (1st graph), the adventitia thickness (2nd graph), the total arterial wall thickness (3rd graph), a media cell density (4th graph), and the adventitia cell density (5th graph). […] The bar graphs on the right show the percentage of the collagen area and the percentage of the α-SMA positive area. * P<0.05; **, P<0.01; ***, P<0.001; a mouse sample size n=6/group.
RCAs are harvested after 21 days for the histological staining and the western blot analysis. […] Bar graphs below show the percentage of the MCP1-positive cell area and the CD68-positive cell area. […] The β-actin serves as a loading control. […] The β-actin serves as a loading control. *, P<0.05; **, P<0.01; *** P<0.001; a mouse sample size n=6/group, other sample sizes n=4/group.
The bar graph on the right illustrates the luminal diameter of the ascending aorta. An ascending aortic tissue is harvested after 21 days for the histological staining. […] The bar graphs below display the intimal thickness (1st graph), the adventitia thickness (2nd graph), the total arterial wall thickness (3rd graph), the medial cell density (4th graph), and the adventitia cell density (5th graph). *, P<0.05; **, P<0.01; ***, P<0.001; a mouse sample size n=6/group.
The ascending aortic tissue is harvested for the histological staining 21 days after the surgery. […] Below are quantitative bar graphs showing the quantitation of the percentage of the positive area for each corresponding stain. *, P<0.05; **, P<0.01; *** P<0.001; a mouse sample size n≥6/group.
FIG. 7 depicts that the intraperitoneal injection of the purified human AGGF1 protein, dependent on the RDD sequence, attenuates a TAC-induced ascending aortic TGF-β1 maturation and a signaling pathway, as well as the ERK1/2 signaling pathway. The RCAs are harvested after 21 days for the western blot analysis. […] The β-actin serves as a loading control. […] The β-actin serves as a loading control. *, P<0.05; **, P<0.01; ***, P<0.001; sample size n=4/group.
The research team obtained blood vessel samples from the thoracic aorta of 8 normal individuals and 8 patients with the thoracic aortic aneurysm from the hospital. […] Subsequently, the research divided C57BL/6 mice into 6 groups: after sham surgery, they were divided into a buffer group, an AGGF1 group, and an AGGF1-RDD^del group (Sham+buffer, Sham+AGGF1, Sham+AGGF1-RDD^del), and after the TAC surgery, they were divided into a buffer group, an AGGF1 group, and an AGGF1-RDD^del group (TAC+buffer, TAC+AGGF1, TAC+AGGF1-RDD^del), with each group having mice ≥6. Buffer was protein elution solution. 21 days after the TAC surgery, Doppler ultrasound was used to detect vascular luminal diameter, and carotid artery and aorta were collected for histological staining and Western blot to evaluate the effect of AGGF1. Starting from the second day after the surgery, recombinant AGGF1 protein or AGGF1-RDD^del protein was administered through intraperitoneal injection in the mice, with the same dose of EB as control, once every 2 days for 3 weeks. The protein dosage was 0.5 mg/kg.

The mark [5] stands for this setting: after TAC vs buffer, 0.5 mg/kg i.p. once every 2 days for 3 weeks, day 21.
The mark [6] stands for this setting: after TAC, 0.5 mg/kg i.p., day 21.
[7] abbreviates: regardless of sham or TAC surgery, 0.5 mg/kg i.p.

T1 sequence (Q13683 34-1181): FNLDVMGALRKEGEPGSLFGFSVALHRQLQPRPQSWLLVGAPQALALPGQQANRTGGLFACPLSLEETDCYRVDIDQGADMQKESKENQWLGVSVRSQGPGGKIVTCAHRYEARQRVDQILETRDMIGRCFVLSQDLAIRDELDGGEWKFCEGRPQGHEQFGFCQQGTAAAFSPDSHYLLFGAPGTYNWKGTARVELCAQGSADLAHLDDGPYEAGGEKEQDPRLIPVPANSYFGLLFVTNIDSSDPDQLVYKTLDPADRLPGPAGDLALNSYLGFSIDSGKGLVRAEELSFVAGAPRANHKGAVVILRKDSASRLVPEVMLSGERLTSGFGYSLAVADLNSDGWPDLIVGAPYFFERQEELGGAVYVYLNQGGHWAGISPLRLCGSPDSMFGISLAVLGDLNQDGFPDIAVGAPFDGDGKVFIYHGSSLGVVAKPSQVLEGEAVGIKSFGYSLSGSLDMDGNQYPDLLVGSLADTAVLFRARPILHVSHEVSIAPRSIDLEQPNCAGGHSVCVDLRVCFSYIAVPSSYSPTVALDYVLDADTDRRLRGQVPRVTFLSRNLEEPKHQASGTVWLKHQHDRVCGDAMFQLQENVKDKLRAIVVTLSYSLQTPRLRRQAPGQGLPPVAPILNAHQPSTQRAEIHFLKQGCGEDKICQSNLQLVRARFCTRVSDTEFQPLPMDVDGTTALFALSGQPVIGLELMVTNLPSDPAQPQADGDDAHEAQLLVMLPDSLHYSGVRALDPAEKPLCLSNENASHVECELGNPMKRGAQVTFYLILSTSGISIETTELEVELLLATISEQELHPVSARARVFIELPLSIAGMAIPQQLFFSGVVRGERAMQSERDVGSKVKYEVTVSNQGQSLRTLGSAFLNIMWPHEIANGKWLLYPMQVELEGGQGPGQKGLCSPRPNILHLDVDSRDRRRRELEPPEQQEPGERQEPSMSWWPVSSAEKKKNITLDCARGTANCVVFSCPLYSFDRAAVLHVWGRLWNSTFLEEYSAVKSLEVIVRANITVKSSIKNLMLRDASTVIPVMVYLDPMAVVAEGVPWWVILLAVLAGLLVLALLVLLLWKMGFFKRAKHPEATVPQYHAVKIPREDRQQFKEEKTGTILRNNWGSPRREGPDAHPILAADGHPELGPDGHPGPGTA
T1 sequence (P05556 21-798 partner): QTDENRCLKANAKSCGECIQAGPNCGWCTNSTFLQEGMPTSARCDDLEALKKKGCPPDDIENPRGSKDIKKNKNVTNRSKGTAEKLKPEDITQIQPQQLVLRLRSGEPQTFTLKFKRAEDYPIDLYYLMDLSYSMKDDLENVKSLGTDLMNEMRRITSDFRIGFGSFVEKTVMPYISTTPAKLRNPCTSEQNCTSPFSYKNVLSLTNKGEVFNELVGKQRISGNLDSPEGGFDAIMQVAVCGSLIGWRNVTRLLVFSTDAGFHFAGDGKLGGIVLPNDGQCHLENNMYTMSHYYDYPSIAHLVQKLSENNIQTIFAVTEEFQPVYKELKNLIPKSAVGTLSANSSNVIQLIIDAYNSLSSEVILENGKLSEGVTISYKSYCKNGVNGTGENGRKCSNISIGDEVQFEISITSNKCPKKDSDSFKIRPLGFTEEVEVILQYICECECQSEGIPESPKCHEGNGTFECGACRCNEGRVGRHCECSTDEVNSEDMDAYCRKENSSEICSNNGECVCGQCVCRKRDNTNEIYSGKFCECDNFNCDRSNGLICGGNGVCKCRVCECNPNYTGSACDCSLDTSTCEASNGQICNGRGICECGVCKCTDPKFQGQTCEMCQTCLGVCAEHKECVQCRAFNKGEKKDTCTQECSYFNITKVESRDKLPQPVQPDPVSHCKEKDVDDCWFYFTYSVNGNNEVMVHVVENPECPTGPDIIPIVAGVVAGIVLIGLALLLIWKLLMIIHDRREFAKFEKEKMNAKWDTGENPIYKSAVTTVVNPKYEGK

B1: AGGF1 protein: recombinant human AGGF1 protein with His tag, SEQ ID NO:1, expressed from pet28-AGGF1 in Escherichia coli BL21 (DE3) (protein, listed as Homo sapiens)
chain: MASEAPSPPRSPPPPTSPEPELAQLRRKVEKLERELRSCKRQVREIEKLLHHTERLYQNAESNNQELRTQVEELSKILQRGRNEDNKKSDVEVQTENHAPWSISDYFYQTYYNDVSLPNKVTELSDQQDQAIETSILNSKDHLQVENDAYPGTDRTENVKYRQVDHFASNSQEPASALATEDTSLEGSSLAESLRAAAEAAVSQTGFSYDENTGLYFDHSTGFYYDSENQLYYDPSTGIYYYCDVESGRYQFHSRVDLQPYPTSSTKQSKDKKLKKKRKDPDSSATNEEKDLNSEDQKAFSVEHTSCNEEENFANMKKKAKIGIHHKNSPPKVTVPTSGNTIESPLHENISNSTSFKDEKIMETDSEPEEGEITDSQTEDSYDEAITSEGNVTAEDSEDEDEDKIWPPCIRVIVIRSPVLQIGSLFIITAVNPATIGREKDMEHTLRIPEVGVSKFHAEIYFDHDLQSYVLVDQGSQNGTIVNGKQILQPKTKCDPYVLEHGDEVKIGETVLSFHIHPGSDTCDGCEPGQVRAHLRLDKKDESFVGPTLSKEEKELERRKELKKIRVKYGLQNTEYEDEKTLKNPKYKDRAGKRREQVGSEGTFQRDDAPASVHSEITDSNKGRKMLEKMGWKKGEGLGKDGGGMKTPIQLQLRRTHAGLGTGKPSSFEDVHLLQNKNKKNWDKARERFTENFPETKPQKDDPGTMPWVKGTLE
modifications: His tag
Regarding B1, the “TGFβ1-induced inflammation (Il6, Mcp1, Mmp2, Mmp9)” value in test [1] (RT-PCR, TGF-β1 24 hours then AGGF1 24 hours) was “inhibit”. Besides, the “level of the mature TGFβ1” value in test [1] (Western blot and ELISA, protein treatment 48 hours) is “inhibits”. Besides, the “TGFβ1 signaling pathway (Smad3 and ERK1/2)” value in test [1] (Western blot, TGF-β1 15 minutes then AGGF1 10 minutes) was “inhibits”. Moreover, in test [2], the “interaction of integrin α7 with LAP-TGF-β1 (LAP-TGF-β1-GFP/α7-FLAG ratio)” value is “enhances”. The “inhibition of mature TGFβ1 by integrin α7” value in test [3] is given as “enhance”. For the same molecule, in test [4] (TAC, 0.5 mg/kg i.p., day 21), the “ascending aortic expansion (FIG. 5)” value is recorded as “significantly inhibit” and the “vascular thickening (H&E staining, ascending aorta, FIG. 5)” value is listed as “significantly inhibit”. Further, in test [4] (setting [5]), the “vascular expansion (right carotid artery, FIG. 3)” value is reported as “significantly inhibit” and the “vascular remodeling (right carotid artery, FIG. 3)” value is reported as “significantly inhibit”. Also, the “vascular inflammation (MCP-1, CD68; right carotid artery, FIG. 4)” value in test [4] (after TAC vs buffer, 0.5 mg/kg i.p., day 21) is on record as “significantly inhibit”. Also, in test [4] (setting [6]), the “inflammation of the ascending aorta (FIG. 6)” value was “inhibited” and the “remodeling of the ascending aorta (FIG. 6)” value is “inhibited”. For the same molecule, in test [4] (setting [7]), the “level of the mature TGFβ1 (Western blot, RCA, FIG. 4)” value is listed as “inhibit”; the “p-ERK1/2 (Western blot, RCA, FIG. 4)” value was “inhibit”; the “p-Smad3 (Western blot, RCA, FIG. 4)” value is given as “inhibit”. Moreover, in test [4] (sham group, 0.5 mg/kg i.p. once every 2 days for 3 weeks), the “effect on the carotid artery and aorta” value was “little effect”.
